This data set in a line: yeast display, Sf9 membrane polyspecificity reagent, FACS + sequencing; frameworks hold sequencing errors. The method in brief:
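Polyreactivity labels are assigned by the sorting gate from which each nanobody was recovered. The gates were low and high (top ~1%), set on anti-HA fluorescence for expression and streptavidin fluorescence for reagent binding. Before sorting, galactose-induced (36–48 hours) yeast display cells were stained for 1 hour at 4 °C with 10% biotinylated, detergent-solubilized Sf9 membrane reagent.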
With “QVQLVESGGGLVQAGGSLRLSCAASGLTFVPNAMGWYRQAPGKERELFAAISNNGGRTYYADSVKGRFTISRDNAKNTVYLQMNSLKPEDTAVYYCANYLSPGERHSYDYWGQGTKVTVSS”, the “polyreactivity (PSR sort gate)” value is on record as “high polyreactivity”.

Turning to “QVQLVESGGGLVQAGGSLRLSCAASGLTFVRYTMGWYRQAPGKERELVADISSVGSTYYADSVKGRFTISRDNAKNTVYLQMNSLKPQDTAVYYCNTSYIIWYDSWGQGTQVTVSS”, the “polyreactivity (PSR sort gate)” value was “low polyreactivity”. For “QVQLVESGGGLVQAGGSLRLSCAASGLTFVWYAMGWYIQAPGKERELVAGITSGGRTYYADSVKGRFTISRDNAKNTVYLQMISLKPEDTGVYDCNAVVRWGYGYDYWGQGTQVTVSS”, the “polyreactivity (PSR sort gate)” value is given as “high polyreactivity”. As for “QVQLVESGGGLVQAGGSLRLSCAASGLTFVWYAMGWYRQAPGKERELVAAIRGGGSTYYADSVKGRFTISRDNAKNTVYLQMNSLKPEDTAVYYCNARYYGAHSPYRFDYWGQGTQVTVSS”, the “polyreactivity (PSR sort gate)” value is recorded as “high polyreactivity”.

With “QVQLVESGGGLVQAGGSLRLSCAASGLTFVWYGKGWYRQATGKERELVAAITRGGSTYYADSVKGRFTISRDNAKNTVYLQMKSLKPEDTAVYYCAARRLERRVRPGYYPYDYWVQGTQVTVSS”, the “polyreactivity (PSR sort gate)” value is listed as “high polyreactivity”.

“QVQLVESGGGLVQAGGSLRLSCAASGLTFVWYGMGWYRQAPGKERELVAAITRGGSTYYADSVKGRFTISRDNAKNTVYLQMNSLKPEDTAVYYCAARYKYTGYDYWGQGTQVTVSS”: the “polyreactivity (PSR sort gate)” value was “high polyreactivity”.

As for “QVQLVESGGGLVQAGGSLRLSCAASGLTFVWYSMGWYRHAPGKERELVAGITSGGRTYYADSVKGRFTISRDNAKNTVYLQMNRLKPEDTAVYYCAAYGNYNEYDSWGQGTQVSVSS”, the “polyreactivity (PSR sort gate)” value was “high polyreactivity”. Consider “QVQLVESGGGLVQAGGSLRLSCAASGLTFVYNAMGWYRQATGKERELVAAISRVGSTNYADSVKGRFTISRDNAKYTVYLQLNSLKPADTAVYYCNKGNAYVVYTSGYDYWGQGTQVTVSS”, for which the “polyreactivity (PSR sort gate)” value was “low polyreactivity”. For the sequence “QVQLVESGGGLVQAGGSLRLSCAASGLTFVYYVLGWYRQAPGKESELVAAITDGGSTYYADSVKGRFTISRDNAKNTVYLQMNSRKPEDTAVYYCAADYYWLYGRWGVDYWGQGTQVTVSS”, the “polyreactivity (PSR sort gate)” value is reported as “high polyreactivity”. As to “QVQLVESGGGLVQAGGSLRLSCAASGLTFWANTMGWYRQAPGKERELVAAITWSGGSTYYADSVKGRFTISRDNAKNTFYLQMNSLKPEDNAVYYCAAEEFFSAGYSYYYWGQGTQVTVSS”, the “polyreactivity (PSR sort gate)” value is recorded as “low polyreactivity”. For “QVQLVESGGGLVQAGGSLRLSCAASGLTFWAYAMGWYRQEPGKEREFVAAISWSVDSTYYADSVKGRFTISRDNAKNTVYLQMNSLKPEDTAVYYCAAEWYYVYIAPYRYYYRGQGTQVTVSS”, the “polyreactivity (PSR sort gate)” value is listed as “low polyreactivity”. Then “QVQLVESGGGLVQAGGSLRLSCAASGLTFWFNAMGWYRQAHGKEREFVAAISLSSTYYADSVKGRFTISRDNAKNTVYLQMNSLKPEDTAVYYCAAELSVSLYDFDYWGQGTQETVSS”, with “high polyreactivity”. On to “QVQLVESGGGLVQAGGSLRLSCAASGLTFWPYAMGWYRQAPGKERELVAAISSSGRTYYADSVKGRFTISRDNAKNTVYLQMNSLKPEDTAVYYCARRFWFHYYGYDYWGQGTQVTVSS”, for which the “polyreactivity (PSR sort gate)” value was “high polyreactivity”.

With “QVQLVESGGGLVQAGGSLRLSCAASGLTFWRYAMGWYRQAPGKERELVAGISSSTGSTYYADSVKGRFTISRDNAKNTVYLQMNSLKPEDTAVYYCNAYVRRIVRSYYWGQGTQVTVSS”, the “polyreactivity (PSR sort gate)” value is “high polyreactivity”. For “QVQLVESGGGLVQAGGSLRLSCAASGLTFWYYAMGWYRQAPGKERELVAAIDWSGASTYYADSVKGRFTISRDNAKNTVYLQMYSLKPEDTAVYYCNTVYYIGDDYWGQGTQVTVSS”, the “polyreactivity (PSR sort gate)” value is recorded as “high polyreactivity”. In the case of “QVQLVESGGGLVQAGGSLRLSCAASGLTFWYYDMGWYRQAPGKERELVAAISRCGGTTYYADSVKGRFTISRDNAKNSVYLQMNSLKPEDTAVYYCAAVSFGFWVTEYYYWGQGTQVNVSS”, the “polyreactivity (PSR sort gate)” value is “high polyreactivity”.
